These results are taken from US20200010507A1.

Where no end group is shown, it is not given here. [ ]: non-standard residue; d: D form. NMeE = CN[C@@H](CCC(=O)O)C(=O)O

For the assay, the target named is ex vivo seeds extracted from the hearts of eight ATTR patients. The assay can be described thus: cell-based or functional assay.

B1: TabF2 (peptide)
peptide: RRRRHVAHPFV[NMeE]FTE
For B1, the peptide concentration giving full inhibition of amyloid seeding (tested as the cocktail TabFH2) amounted to 360 µM.
